Test results as given in patent publication US20240279278A1, “NMU RECEPTOR 2 AGONISTS” (Boehringer Ingelheim International GmbH, priority 2023, published 2024).
Starred links: 1 amine or outer side, 2 acyl side, 3 side chain; linkers in the order of their positions; H or OH if unused. Non-standard residues stand in square brackets, D forms with d. *: point of attachment. Pipz(1-CH2CO,4-CH2CH2NH) = O=C(CN1CCN(CCN[*:1])CC1)[*:2]; C18 diacid = O=C(O)CCCCCCCCCCCCCCCCC(=O)*; γGlu = O=C(O)[C@H](CCC(=O)[*:2])N[*:1]; 3Pal = N[C@@H](Cc1cccnc1)C(=O)O; 4Pal = N[C@@H](Cc1ccncc1)C(=O)O; NMeL = CN[C@@H](CC(C)C)C(=O)O; NMeA = CN[C@@H](C)C(=O)O; Nle = CCCC[C@H](N)C(=O)O; Sar = CNCC(=O)O

T1: human neuromedin U receptor 1 (human, UniProt Q9HB89 24-426)
T1 sequence (looked up): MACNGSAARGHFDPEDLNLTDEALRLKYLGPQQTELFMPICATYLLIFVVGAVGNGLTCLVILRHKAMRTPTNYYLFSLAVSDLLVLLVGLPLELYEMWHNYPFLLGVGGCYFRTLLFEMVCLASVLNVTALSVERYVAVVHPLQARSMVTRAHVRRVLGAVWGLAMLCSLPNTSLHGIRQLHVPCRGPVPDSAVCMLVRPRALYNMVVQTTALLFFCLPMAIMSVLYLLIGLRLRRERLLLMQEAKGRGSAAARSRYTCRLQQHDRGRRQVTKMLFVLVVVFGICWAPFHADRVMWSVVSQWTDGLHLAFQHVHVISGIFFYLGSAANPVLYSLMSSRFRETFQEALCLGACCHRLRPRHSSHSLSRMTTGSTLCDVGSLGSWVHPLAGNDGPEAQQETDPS

B1: C18DA-gGlu3-Sar15-AEPipAc-Tyr-Phe-NMeLeu-Nle-4Pal-NMeAla-Arg-Gly-NH2 (peptide)
peptide: {C18 diacid}-[γGlu][γGlu][γGlu][Sar][Sar][Sar][Sar][Sar][Sar][Sar][Sar][Sar][Sar][Sar][Sar][Sar][Sar][Sar][Pipz(1-CH2CO,4-CH2CH2NH)]YF[NMeL][Nle][4Pal][NMeA]RG-NH2
SMILES: CCCC[C@H](NC(=O)[C@H](CC(C)C)N(C)C(=O)[C@H](Cc1ccccc1)NC(=O)[C@H](Cc1ccc(O)cc1)NC(=O)CN1CCN(CCNC(=O)CN(C)C(=O)CN(C)C(=O)CN(C)C(=O)CN(C)C(=O)CN(C)C(=O)CN(C)C(=O)CN(C)C(=O)CN(C)C(=O)CN(C)C(=O)CN(C)C(=O)CN(C)C(=O)CN(C)C(=O)CN(C)C(=O)CN(C)C(=O)CN(C)C(=O)CC[C@H](NC(=O)CC[C@H](NC(=O)CC[C@H](NC(=O)CCCCCCCCCCCCCCCCC(=O)O)C(=O)O)C(=O)O)C(=O)O)CC1)C(=O)N[C@@H](Cc1ccncc1)C(=O)N(C)[C@@H](C)C(=O)N[C@@H](CCCNC(=N)N)C(=O)NCC(N)=O
B2: C18DA-gGlu3-Sar15-AEPipAc-Tyr-Phe-NMeLeu-Nle-3Pal-NMeAla-Arg-Gly-NH2 (peptide)
peptide: {C18 diacid}-[γGlu][γGlu][γGlu][Sar][Sar][Sar][Sar][Sar][Sar][Sar][Sar][Sar][Sar][Sar][Sar][Sar][Sar][Sar][Pipz(1-CH2CO,4-CH2CH2NH)]YF[NMeL][Nle][3Pal][NMeA]RG-NH2
SMILES: CCCC[C@H](NC(=O)[C@H](CC(C)C)N(C)C(=O)[C@H](Cc1ccccc1)NC(=O)[C@H](Cc1ccc(O)cc1)NC(=O)CN1CCN(CCNC(=O)CN(C)C(=O)CN(C)C(=O)CN(C)C(=O)CN(C)C(=O)CN(C)C(=O)CN(C)C(=O)CN(C)C(=O)CN(C)C(=O)CN(C)C(=O)CN(C)C(=O)CN(C)C(=O)CN(C)C(=O)CN(C)C(=O)CN(C)C(=O)CN(C)C(=O)CC[C@H](NC(=O)CC[C@H](NC(=O)CC[C@H](NC(=O)CCCCCCCCCCCCCCCCC(=O)O)C(=O)O)C(=O)O)C(=O)O)CC1)C(=O)N[C@@H](Cc1cccnc1)C(=O)N(C)[C@@H](C)C(=O)N[C@@H](CCCNC(=N)N)C(=O)NCC(N)=O
B3: C20DA-gGlu3-Sar9-AEPipAc-Tyr-Phe-NMeLeu-Nle-Dbu-Pro-Arg-Gly-NH2 (peptide)
peptide: EEEXXXXXXXXXXYFLXXPRG
HELM: PEPTIDE1{[O=C(O)CCCCCCCCCCCCCCCCCCC(=O)[*:2]].[gGlu].[gGlu].[gGlu].[Sar].[Sar].[Sar].[Sar].[Sar].[Sar].[Sar].[Sar].[Sar].[O=C(CN1CCN(CCN[*:1])CC1)[*:2]].Y.F.[meL].[Nle].[Dab].P.R.G.[am]}$$$$V2.0
SMILES: CCCC[C@H](NC(=O)[C@H](CC(C)C)N(C)C(=O)[C@H](Cc1ccccc1)NC(=O)[C@H](Cc1ccc(O)cc1)NC(=O)CN1CCN(CCNC(=O)CN(C)C(=O)CN(C)C(=O)CN(C)C(=O)CN(C)C(=O)CN(C)C(=O)CN(C)C(=O)CN(C)C(=O)CN(C)C(=O)CN(C)C(=O)CC[C@H](NC(=O)CC[C@H](NC(=O)CC[C@H](NC(=O)CCCCCCCCCCCCCCCCCCC(=O)O)C(=O)O)C(=O)O)C(=O)O)CC1)C(=O)N[C@@H](CCN)C(=O)N1CCC[C@H]1C(=O)N[C@@H](CCCNC(=N)N)C(=O)NCC(N)=O
B4: C20DA-gGlu3-Sar12-AEPipAc-Tyr-Phe-NMeLeu-Nle-Dbu-NMeAla-Arg-Gly-NH2 (peptide)
peptide: EEEXXXXXXXXXXXXXYFLXXARG
HELM: PEPTIDE1{[O=C(O)CCCCCCCCCCCCCCCCCCC(=O)[*:2]].[gGlu].[gGlu].[gGlu].[Sar].[Sar].[Sar].[Sar].[Sar].[Sar].[Sar].[Sar].[Sar].[Sar].[Sar].[Sar].[O=C(CN1CCN(CCN[*:1])CC1)[*:2]].Y.F.[meL].[Nle].[Dab].[meA].R.G.[am]}$$$$V2.0
SMILES: CCCC[C@H](NC(=O)[C@H](CC(C)C)N(C)C(=O)[C@H](Cc1ccccc1)NC(=O)[C@H](Cc1ccc(O)cc1)NC(=O)CN1CCN(CCNC(=O)CN(C)C(=O)CN(C)C(=O)CN(C)C(=O)CN(C)C(=O)CN(C)C(=O)CN(C)C(=O)CN(C)C(=O)CN(C)C(=O)CN(C)C(=O)CN(C)C(=O)CN(C)C(=O)CN(C)C(=O)CC[C@H](NC(=O)CC[C@H](NC(=O)CC[C@H](NC(=O)CCCCCCCCCCCCCCCCCCC(=O)O)C(=O)O)C(=O)O)C(=O)O)CC1)C(=O)N[C@@H](CCN)C(=O)N(C)[C@@H](C)C(=O)N[C@@H](CCCNC(=N)N)C(=O)NCC(N)=O

Molecular target: T1, human neuromedin U receptor 1
Assay: cell-based or functional assay

B1 and B2 cannot be ordered by “EC50 (hNMUR1) buffer” value: over 1000 nM for the first, over 1000 nM for the second.

Going from B3 to B4, the “EC50 (hNMUR1) buffer” value rises from 540 nM to over 1000 nM.
